Experimental data from the supplement of paper PMC5998384.

Legend:
HeLa Kyoto [1] = test: solubility in G1/S (NP-40 vs SDS abundance) (log2 ratio); higher = more soluble; details: cell cycle stage: G1/S
HeLa Kyoto [2] = test: solubility change mitosis vs G1/S (difference of NP-40 vs SDS log2 ratios) (log2 ratio difference); higher = more soluble in mitosis
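For solubility change mitosis vs G1/S (difference of NP-40 vs SDS log2 ratios) in this document: synchronized HeLa Kyoto cells (double thymidine block for G1/S, nocodazole release for mitosis), protein amounts in NP-40 versus SDS lysates quantified by mass spectrometry, three biological replicates.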
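For solubility in G1/S (NP-40 vs SDS abundance) in this document: HeLa Kyoto cells arrested at G1/S by double thymidine block, proteins quantified by TMT10plex mass spectrometry in mild NP-40 versus SDS extracts, three biological replicates.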

CLK3, sequence (chain, as listed by the source): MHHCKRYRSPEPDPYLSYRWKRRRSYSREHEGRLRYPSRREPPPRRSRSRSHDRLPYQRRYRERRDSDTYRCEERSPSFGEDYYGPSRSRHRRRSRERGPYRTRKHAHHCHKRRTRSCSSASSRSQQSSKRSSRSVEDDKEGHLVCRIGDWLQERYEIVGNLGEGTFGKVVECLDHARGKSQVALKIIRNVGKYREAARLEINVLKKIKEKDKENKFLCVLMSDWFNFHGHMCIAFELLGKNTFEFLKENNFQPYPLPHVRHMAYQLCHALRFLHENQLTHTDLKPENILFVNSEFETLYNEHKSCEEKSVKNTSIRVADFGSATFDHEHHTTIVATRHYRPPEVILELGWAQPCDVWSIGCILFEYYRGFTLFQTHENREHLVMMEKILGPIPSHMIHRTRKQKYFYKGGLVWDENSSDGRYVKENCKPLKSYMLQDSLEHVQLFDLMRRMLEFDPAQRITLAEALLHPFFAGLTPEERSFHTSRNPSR

Substance: MSLPLTEEQRKKIEENRQKALARRAEKLLAEQHQRTSSGTSIAGNPFQAKQGPSQNFPRESCKPVSHGVIFKQQNLSSSSNADQRPHDSHSFQAKGIWKKPEEMPTACPGHSPRSQMALTGISPPLAQSPPEVPKQQLLSYELGQGHAQASPEIRFTPFANPTHKPLAKPKSSQETPAHSSGQPPRDAKLEAKTAKASPSGQNISYIHSSSESVTPRTEGRLQQKSGSSVQKGVNSQKGKCVRNGDRFQVLIGYNAELIAVFKTLPSKNYDPDTKTWNFSMNDYSALMKAAQSLPTVNLQPLEWAYGSSESPSTSSEGQAGLPSAPSLSFVKGRCMLISRAYFEADISYSQDLIALFKQMDSRRYDVKTRKWSFLLEEHSKLIAKVRCLPQVQLDPLPTTLTLAFASQLKKTSLSLTPDVPEADLSEVDPKLVSNLMPFQRAGVNFAIAKGGRLLLADDMGLGKTIQAICIAAFYRKEWPLLVVVPSSVRFTWEQAFLRWLPSLSPDCINVVVTGKDRLTAGLINIVSFDLLSKLEKQLKTPFKVVIIDESHFLKNSRTARCRAAMPVLKVAKRVILLSGTPAMSRPAELYTQIIAVKPTFFPQFHAFGLRYCDAKRMPWGWDYSGSSNLGELKLLLEEAVMLRRLKSDVLSQLPAKQRKIVVIAPGRINARTRAALDAAAKEMTTKDKTKQQQKDALILFFNRTAEAKIPSVIEYILDLLESGREKFLVFAHHKVVLDAITQELERKHVQHIRIDGSTSSAEREDLCQQFQLSERHAVAVLSITAANMGLTFSSADLVVFAELFWNPGVLIQAEDRVHRIGQTSSVGIHYLVAKGTADDYLWPLIQEKIKVLAEAGLSETNFSEMTESTDYLYKDPKQQKIYDLFQKSFEKEGSDMELLEAAESFDPGSASGTSGSSSQNMGDTLDESSLTASPQKKRRFEFFDNWDSFTSPL [SMARCAL1]
- solubility in G1/S (log2) (HeLa Kyoto [1]): 0.0557
- solubility change mitosis (log2) (HeLa Kyoto [2]): 0.0546

Substance: MNSDQDVALKLAQERAEIVAKYDRGREGAEIEPWEDADYLVYKVTDRFGFLHEEELPDHNVAVERQKHLEIERTTKWLKMLKGWEKYKNTEKFHRRIYKGIPLQLRGEVWALLLEIPKMKEETRDLYSKLKHRARGCSPDIRQIDLDVNRTFRDHIMFRDRYGVKQQSLFHVLAAYSIYNTEVGYCQGMSQITALLLMYMNEEDAFWALVKLFSGPKHAMHGFFVQGFPKLLRFQEHHEKILNKFLSKLKQHLDSQEIYTSFYTMKWFFQCFLDRTPFTLNLRIWDIYIFEGERVLTAMSYTILKLHKKHLMKLSMEELVEFFQETLAKDFFFEDDFVIEQLQISMTELKRAKLDLPEPGKEDEYPKKPLGQLPPELQSWGVHHLSNGQRSVGRPSPLASGRRESGAPHRRHEHSPHPQSRTGTPERAQPPRRKSVEEESKKLKDEADFQRKLPSGPQDSSRQYNHAAANQNSNATSNIRKEFVPKWNKPSDVSATERTAKYTMEGKGRAAHPALAVTVPGPAEVRVSNVRPKMKALDAEDGKRGSTASQYDNVPGPELDSGASVEEALERAYSQSPRHALYPPSPRKHAEPSSSPSKVSNKFTFKVQPPSHARYPSQLDGEARGLAHPPSYSNPPVYHGNSPKHFPTANSSFASPQFSPGTQLNPSRRPHGSTLSVSASPEKSYSRPSPLVLPSSRIEVLPVDTGAGGYSGNSGSPKNGKLIIPPVDYLPDNRTWSEVSYTYRPETQGQSWTRDASRGNLPKYSAFQLAPFQDHGLPAVSVDSPVRYKASPAAEDASPSGYPYSGPPPPAYHYRNRDGLSIQESVLL [USP6NL]
- solubility in G1/S (log2) (HeLa Kyoto [1]): -0.388
- solubility change mitosis (log2) (HeLa Kyoto [2]): -0.321

Substance: MAKAGDKSSSSGKKSLKRKAAAEELQEAAGAGDGATENGVQPPKAAAFPPGFSISEIKNKQRRHLMFTRWKQQQRKEKLAAKKKLKKEREALGDKAPPKPVPKTIDNQRVYDETTVDPNDEEVAYDEATDEFASYFNKQTSPKILITTSDRPHGRTVRLCEQLSTVIPNSHVYYRRGLALKKIIPQCIARDFTDLIVINEDRKTPNGLILSHLPNGPTAHFKMSSVRLRKEIKRRGKDPTEHIPEIILNNFTTRLGHSIGRMFASLFPHNPQFIGRQVATFHNQRDYIFFRFHRYIFRSEKKVGIQELGPRFTLKLRSLQKGTFDSKYGEYEWVHKPREMDTSRRKFHL [RPF1]
- solubility in G1/S (log2) (HeLa Kyoto [1]): -1.77
- solubility change mitosis (log2) (HeLa Kyoto [2]): 0.774

Substance: MATVLSRALKLPGKKSPDLGEYDPLTQADSDESEDDLVLNLQKNGGVKNGKSPLGEAPEPDSDAEVAEAAKPHLSEVTTEGYPSEPLGGLEQKAASSLVSYVRTSVFLLTLGISMILVLLCAFLIPCPPRDLHSTWSRHLGSQGGGDLSPLELADVNGDGLRDVLLSFVMSRNGSAVGVSRPAANLVCLSGMNGSTLWSSLLPEEARDITCLELMPGSLAETICLVTGTHKMLSAFNATSGKAIWTLNPNYLSNGTLAAPVVVLPDLDEDGVRDLVVLAIGELQPDLCFLLVSGRTGNPVGRPVKYNIVGVGNLIGPQVYITTNGAVYILFGFGNIQAVALRDIFVQAQNRDSSPPSLQIEEPEWEKRRSINLSELIDVYSDGVELLQMVKAPDSNCSNLLITTRQSLVLLRGQNLTPYWALRLQGLRSQPTPGYFTDDQTLDFLLQIQDGVGMKKMMVVDGDSGSIVWSYRAPCHMKETPATSAVTSDQKSVFLFWAEGLSAASPNSDIILGTEPPSLHHLYLLHPAFPSILLDLANTTGTVTASEVGINDLWKDAFYVTRTTGPSSEGHPAALVVSKLSLRWALMEGQMAQLQESTPKIGRGELRRFLSRIKFVEAPYEI [KIAA1467]
- solubility in G1/S (log2) (HeLa Kyoto [1]): 0.0831
- solubility change mitosis (log2) (HeLa Kyoto [2]): -0.0551

Substance: MEPLKVEKFATAKRGNGLRAVTPLRPGELLFRSDPLAYTVCKGSRGVVCDRCLLGKEKLMRCSQCRVAKYCSAKCQKKAWPDHKRECKCLKSCKPRYPPDSVRLLGRVVFKLMDGAPSESEKLYSFYDLESNINKLTEDKKEGLRQLVMTFQHFMREEIQDASQLPPAFDLFEAFAKVICNSFTICNAEMQEVGVGLYPSISLLNHSCDPNCSIVFNGPHLLLRAVRDIEVGEELTICYLDMLMTSEERRKQLRDQYCFECDCFRCQTQDKDADMLTGDEQVWKEVQESLKKIEELKAHWKWEQVLAMCQAIISSNSERLPDINIYQLKVLDCAMDACINLGLLEEALFYGTRTMEPYRIFFPGSHPVRGVQVMKVGKLQLHQGMFPQAMKNLRLAFDIMRVTHGREHSLIEDLILLLEECDANIRAS [SMYD3]
- solubility in G1/S (log2) (HeLa Kyoto [1]): -0.0441
- solubility change mitosis (log2) (HeLa Kyoto [2]): -0.167

Substance: MIVFGWAVFLASRSLGQGLLLTLEEHIAHFLGTGGAATTMGNSCICRDDSGTDDSVDTQQQQAENSAVPTADTRSQPRDPVRPPRRGRGPHEPRRKKQNVDGLVLDTLAVIRTLVDNDQEPPYSMITLHEMAETDEGWLDVVQSLIRVIPLEDPLGPAVITLLLDECPLPTKDALQKLTEILNLNGEVACQDSSHPAKHRNTSAVLGCLAEKLAGPASIGLLSPGILEYLLQCLKLQSHPTVMLFALIALEKFAQTSENKLTISESSISDRLVTLESWANDPDYLKRQVGFCAQWSLDNLFLKEGRQLTYEKVNLSSIRAMLNSNDVSEYLKISPHGLEARCDASSFESVRCTFCVDAGVWYYEVTVVTSGVMQIGWATRDSKFLNHEGYGIGDDEYSCAYDGCRQLIWYNARSKPHIHPCWKEGDTVGFLLDLNEKQMIFFLNGNQLPPEKQVFSSTVSGFFAAASFMSYQQCEFNFGAKPFKYPPSMKFSTFNDYAFLTAEEKIILPRHRRLALLKQVSIRENCCSLCCDEVADTQLKPCGHSDLCMDCALQLETCPLCRKEIVSRIRQISHIS [RSPRY1]
- solubility in G1/S (log2) (HeLa Kyoto [1]): -0.235
- solubility change mitosis (log2) (HeLa Kyoto [2]): -0.00113

Substance: CLK3
- solubility in G1/S (log2) (HeLa Kyoto [1]): -1.26
- solubility change mitosis (log2) (HeLa Kyoto [2]): 0.423

Substance: MAAEALAAEAVASRLERQEEDIRWLWSEVERLRDEQLNAPYSCQAEGPCLTREVAQLRAENCDLRHRLCSLRLCLAEERSRQATLESAELEAAQEAGAQPPPSQSQDKDMKKKKMKESEADSEVKHQPIFIKERLKLFEILKKDHQLLLAIYGKKGDTSNIITVRVADGQTVQGEVWKTTPYQVAAEISQELAESTVIAKVNGELWDLDRPLEGDSSLELLTFDNEEAQAVYWHSSAHILGEAMELYYGGHLCYGPPIENGFYYDMFIEDRAVSSTELSALENICKAIIKEKQPFERLEVSKEILLEMFKYNKFKCRILNEKVNTATTTVYRCGPLIDLCKGPHVRHTGKIKTIKIFKNSSTYWEGNPEMETLQRIYGISFPDNKMMRDWEKFQEEAKNRDHRKIGKEQELFFFHDLSPGSCFFLPRGAFIYNTLTDFIREEYHKRDFTEVLSPNMYNSKLWEASGHWQHYSENMFTFEIEKDTFALKPMNCPGHCLMFAHRPRSWREMPIRFADFGVLHRNELSGTLSGLTRVRRFQQDDAHIFCTVEQIEEEIKGCLQFLQSVYSTFGFSFQLNLSTRPENFLGEIEMWNEAEKQLQNSLMDFGEPWKMNPGDGAFYGPKIDIKIKDAIGRYHQCATIQLDFQLPIRFNLTYVSKDGDDKKRPVIIHRAILGSVERMIAILSENYGGKWPFWLSPRQVMVIPVGPTCEKYALQVSSEFFEEGFMADVDLDHSCTLNKKIRNAQLAQYNFILVVGEKEKIDNAVNVRTRDNKIHGEILVTSAIDKLKNLRKTRTLNAEEAF [TARSL2]
- solubility in G1/S (log2) (HeLa Kyoto [1]): -0.498
- solubility change mitosis (log2) (HeLa Kyoto [2]): 0.191

Substance: MDPRGILKAFPKRQKIHADASSKVLAKIPRREEGEEAEEWLSSLRAHVVRTGIGRARAELFEKQIVQHGGQLCPAQGPGVTHIVVDEGMDYERALRLLRLPQLPPGAQLVKSAWLSLCLQERRLVDVAGFSIFIPSRYLDHPQPSKAEQDASIPPGTHEALLQTALSPPPPPTRPVSPPQKAKEAPNTQAQPISDDEASDGEETQVSAADLEALISGHYPTSLEGDCEPSPAPAVLDKWVCAQPSSQKATNHNLHITEKLEVLAKAYSVQGDKWRALGYAKAINALKSFHKPVTSYQEACSIPGIGKRMAEKIIEILESGHLRKLDHISESVPVLELFSNIWGAGTKTAQMWYQQGFRSLEDIRSQASLTTQQAIGLKHYSDFLERMPREEATEIEQTVQKAAQAFNSGLLCVACGSYRRGKATCGDVDVLITHPDGRSHRGIFSRLLDSLRQEGFLTDDLVSQEENGQQQKYLGVCRLPGPGRRHRRLDIIVVPYSEFACALLYFTGSAHFNRSMRALAKTKGMSLSEHALSTAVVRNTHGCKVGPGRVLPTPTEKDVFRLLGLPYREPAERDW [POLL]
- solubility in G1/S (log2) (HeLa Kyoto [1]): 0.0728
- solubility change mitosis (log2) (HeLa Kyoto [2]): -0.00139

Substance: MSFAESGWRSALRRRGPGTPGPVARPSYSSFTQGDSWGEGEVDEEEGCDQVARDLRAEFSAGAWSEPRKRSVLPPDGNGSPVLPDKRNGIFPAAAGSRAQPRRWPVQVLSILCSLLFAILLAFLLAIAYLIVKELHAENLKNEDDVDTGLLGFWTLLIISLTAGFSCCSFSWTVTYFDSFEPGMFPPTPLSPARFKKLTGHSFHMGYSMAILNGIVAALTVAWCLM [ARL6IP6]
- solubility in G1/S (log2) (HeLa Kyoto [1]): -0.241
- solubility change mitosis (log2) (HeLa Kyoto [2]): 0.698
